Experimental data taken from patent US20030104423.
Changes are numbered by the printed parent chain. Names may count otherwise.

Molecular target: σ70, native, untagged (pLN12), P00579
Sequence (P00579 whole entry): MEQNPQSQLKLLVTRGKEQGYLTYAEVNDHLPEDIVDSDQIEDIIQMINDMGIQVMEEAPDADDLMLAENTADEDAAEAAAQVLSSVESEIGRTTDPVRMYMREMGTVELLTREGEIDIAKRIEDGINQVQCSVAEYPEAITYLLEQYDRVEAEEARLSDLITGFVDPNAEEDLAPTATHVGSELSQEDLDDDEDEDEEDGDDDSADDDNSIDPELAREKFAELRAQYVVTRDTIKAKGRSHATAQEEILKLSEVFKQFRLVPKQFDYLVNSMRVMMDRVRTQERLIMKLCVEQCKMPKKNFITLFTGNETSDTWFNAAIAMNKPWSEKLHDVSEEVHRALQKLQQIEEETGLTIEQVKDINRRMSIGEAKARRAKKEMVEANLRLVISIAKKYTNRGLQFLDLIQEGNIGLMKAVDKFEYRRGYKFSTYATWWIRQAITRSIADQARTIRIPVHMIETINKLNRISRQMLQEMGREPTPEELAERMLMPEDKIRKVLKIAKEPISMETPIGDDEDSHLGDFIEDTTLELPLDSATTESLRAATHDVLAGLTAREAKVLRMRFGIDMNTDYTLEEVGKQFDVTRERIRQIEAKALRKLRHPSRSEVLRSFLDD

B1: β′ mutant R297L (protein)
chain: MKDLLKFLKAQTKTEEFDAIKIALASPDMIRSWSFGEVKKPETINYRTFKPERDGLFCARIFGPVKDYECLCGKYKRLKHRGVICEKCGVEVTQTKVRRERMGHIELASPTAHIWFLKSLPSRIGLLLDMPLRDIERVLYFESYVVIEGGMTNLERQQILTEEQYLDALEEFGDEFDAKMGAEAIQALLKSMDLEQECEQLREELNETNSETKRKKLTKRIKLLEAFVQSGNKPEWMILTVLPVLPPDLRPLVPLDGGRFATSDLNDLYRRVINRNNRLKRLLDLAAPDIIVRNEKLMLQEAVDALLDNGRRGRAITGS
Growth at 42° C. with plasmid β′ as sole source of β′ (strain RL602): -

B2: β′ mutant N274P (protein)
chain: B1 chain with N274P, L297R
Growth at 42° C. with plasmid β′ as sole source of β′ (strain RL602): -

B3: β′ mutant E301K (protein)
chain: B1 chain with L297R, E301K
Growth at 42° C. with plasmid β′ as sole source of β′ (strain RL602): +

B4: β′ mutant L299D (protein)
chain: B1 chain with L297R, L299D
Growth at 42° C. with plasmid β′ as sole source of β′ (strain RL602): -

B5: β′ mutant E301P (protein)
chain: B1 chain with L297R, E301P
Growth at 42° C. with plasmid β′ as sole source of β′ (strain RL602): -

B6: β′ mutant R270L (protein)
chain: B1 chain with R270L, L297R
Growth at 42° C. with plasmid β′ as sole source of β′ (strain RL602): +

B7: β′ mutant N274D (protein)
chain: B1 chain with N274D, L297R
Growth at 42° C. with plasmid β′ as sole source of β′ (strain RL602): +

B8: β′ mutant V272D (protein)
chain: B1 chain with V272D, L297R
Growth at 42° C. with plasmid β′ as sole source of β′ (strain RL602): -
